According to article PMC8351461 (Frontiers in Immunology, 2021):

Assays:
Test in all cases: pull-down
Details in all cases: both partners purified
[1] = molecular target: T1, SARS-CoV-2 Nucleocapsid (N) protein, full-length (SARS-CoV-2, reference Wuhan-Hu-1 …, UniProt P0DTC9)
T1 construct: also called full-length N; FL

[2] = molecular target: T2, SARS-CoV-2 N protein C-terminal intrinsically disordered region (residues 365-419) (SARS-CoV-2, reference Wuhan-Hu-1 …, UniProt P0DTC9)
T2 construct: also called C-IDR

[3] = molecular target: T3, SARS-CoV-2 N protein RNA-binding domain (residues 49-174) (SARS-CoV-2, UniProt P0DTC9)
T3 construct: also called N^49-174; N^RBD

B1: single-domain antibody sdAb-E2 (VHH)
VHH: EVQLQASGGGLVQAGGSLRLSCAASGRTDSTQHMAWFRQAPGKEREFVTAIQWRGGGTSYTDSVKGRFTISRDNAKNTVYLEMNSLKPEDTAVYYCATNTRWTYFSPTVPDRYDYWGQGTQVTVSS
notes: not shown: His6, C-terminal, kept
B1: binds [1].

B2: single-domain antibody sdAb-B6 (VHH)
VHH: EVQLQASGGGLVQAGDSLRLSCVAVSGRTISTFAMGWFRQAPGKEREFVATINWSGSSARYADPVEGRFTISRDDAKNTVYLEMSSLKPGDSAVYYCASGRYLGGITSYSQGDFAPWGQGTQVTVSS
notes: as for B1
B2: binds [1].

B3: single-domain antibody sdAb-N3 (VHH)
VHH: KVKLQQSGGGLVQTGGSLRLSCAPSGRTFSVNAMGWYRQAPGKQREPVALISTGGSTNYADSVKGRFTISRDNVKNTVYLQMNTLKPEDTAVYYCYTERWKPRGIERDWGQGTQVTVSS
notes: as for B1
B3: binds [1]; binds [2].

B4: single-domain antibody sdAb-C2 (VHH)
VHH: EVQLQASGGGLVRPGGSLRLSCAASGFTFSSYAMMWVRQAPGKGLEWVSAINGGGGSTSYADSVKGRFTISRDNAKNTLYLQMNSLKPEDTAVYYCAKYQAAVHQEKEDYWGQGTQVTVSS
notes: as for B1
B4: binds [1]; binds [3].
